The target in the experiment is KGF receptor (mouse) (UniProt P21803). Briefly: cell-based or functional assay.
UniProt P21803, sequence (P21803 22-821): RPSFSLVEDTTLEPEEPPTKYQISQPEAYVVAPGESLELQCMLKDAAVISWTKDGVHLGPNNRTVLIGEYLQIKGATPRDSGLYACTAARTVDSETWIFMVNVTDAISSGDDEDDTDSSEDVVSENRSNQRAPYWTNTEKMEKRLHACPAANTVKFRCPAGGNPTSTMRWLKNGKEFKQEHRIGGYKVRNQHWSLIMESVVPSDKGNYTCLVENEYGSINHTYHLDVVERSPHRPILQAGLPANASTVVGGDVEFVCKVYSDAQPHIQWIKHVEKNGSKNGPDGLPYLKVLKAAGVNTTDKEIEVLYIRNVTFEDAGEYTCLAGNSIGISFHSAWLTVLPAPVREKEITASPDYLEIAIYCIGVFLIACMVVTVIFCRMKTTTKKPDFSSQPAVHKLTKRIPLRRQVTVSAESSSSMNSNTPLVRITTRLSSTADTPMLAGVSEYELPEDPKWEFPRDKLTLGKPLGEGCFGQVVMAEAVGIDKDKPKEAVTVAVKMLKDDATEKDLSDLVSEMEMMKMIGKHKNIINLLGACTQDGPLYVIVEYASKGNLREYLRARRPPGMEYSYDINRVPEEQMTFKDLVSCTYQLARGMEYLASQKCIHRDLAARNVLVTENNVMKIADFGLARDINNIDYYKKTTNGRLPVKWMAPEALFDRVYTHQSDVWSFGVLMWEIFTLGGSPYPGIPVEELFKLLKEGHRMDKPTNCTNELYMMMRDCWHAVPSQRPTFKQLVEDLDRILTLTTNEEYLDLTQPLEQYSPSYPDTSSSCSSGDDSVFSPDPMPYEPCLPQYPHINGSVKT

In turn, acidic FGF (ligand) came in with a potency as mitogen for Balb/Mk cells (cell proliferation), relative to KGF (fold less than KGF) of 10.

The values are drawn from patent US20030109439A1.
